Where a chain is given by its changes, count along the chain named.
B1: humanized 6E1 (h6E1), Fc version not stated (antibody, V domains shown)
VH: EVQLVQSGAEVKKPGASVKVSCKASGYTFTNYWMHWMRQAPGQGLEWLGRIHPSDSDTNYNQKFKGRATLTVDKSISTAYMELSRLRSDDTAVYYCAIEGTGKGYFDVWGRGTLVTVSS
VL: DIQMTQSPSSLSASVGDRVTITCKASQDIYSYLSWFQQKPGKSPKTLIYRANRLVDGVPSRFSGSGSGQDFTLTISSLQPEDFATYYCLHYDEFPLTFGGGTKVEIK
B2: humanized 7B3 (h7B3), Fc version not stated (antibody, V domains shown)
VH: EVQLVESGGGLVQPGGSLRLSCAASGFTFSTYGFHWVRQAPGKGLEWVAYISSNSGTIDYADTVKGRFTISRDNAKNSLYLQMNSLRAEDTAVYYCARQGYGFDNWGQGTTVTVSS
VL: DIQLTQSPSSLSASVGDRVTITCSASSRVSYMNWYQQKPGKSPKIWVYGISNLASGVPSRFSGSGSGTDFTFTISSLQPEDIATYYCQQRSSHPLTFGGGTKVEIK
B3: humanized 8E11 (h8E11), Fc version not stated (antibody, V domains shown)
VH: B2 VH with S30R, F34M, N54G, A97T, G100T, Y101G, G102A, F103M, N105Y, T111L
VL: EIVLTQSPATLSLSPGERATLSCSASSSVSYMNWYQQKPGQSPRLWIYGISNLASGVPARFSGSGSGTDFTLTISSLEPEDFAVYYCQQRSSHPLTFGGGTKVEIK

Biological target: mutagenized ULBP6 phage library (pool of ULBP6 mutants displayed on M13 phage)
Assay: plate panning; antibody coated at 5 ug/mL, eluted phage titered against PBS-coated background wells

Row | Binder | Phage enrichment
1 | B1 | 220 fold
2 | B2 | 75 fold
3 | B3 | 145 fold

— patent US20250084172A1
